Results from the supplement of paper PMC7877785.
± gives the uncertainty stated by the source.

Experiment: self-splicing fitness, log relative to wild type (ln ratio); higher = more splicing; Tetrahymena group I intron in knt gene, E. coli kanamycin selection, DiMSum; sequences stand for … in CUCUCU…GGAGGGAAAAGUUAUCAGGCAUGCACCUGGUAGCUAGUCUUUAAACCAAUAGAUUGCAUCGGUUUAAAAGGCAAGACCGUCAAAUUGCGGGAAAGGGGUCAACAGCCGUUCAGUACCAAGUCUCAGGGGAAACUUUGAGAUGGCCUUGCAAAGGGUAUGGUAAUAAGCUGACGGACAUGGUCCUAACCACGCAGCCAAGUCCUAAGUCAACAGAUCUUCUGUUGAUAUGGAUGCAGUUCACAGACUAAAUGUCGGUCGGGGAAGAUGUAUUCUUCUCAUAAGAUAUAGUCGGACCUCUCCUUAAUGGGAGCUAGCGGAUGAAGUGAUGCAACACUGGAGCCGCUGGGAACUAAUUUGUAUGCGAAAGUAUAUUGAUUAGUUUUGGAGUACUCGUGGUCG
In short: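 Six replicate transformations of E. coli BL21(DE3) with a pET-22b(+) library were grown overnight at 37°C or 30°C. The library randomised all eight P1ex-region intron nucleotides, the intron lying in the knt kanamycin-resistance gene, and plates were LB agar with or without 25 μg/mL kanamycin plus 100 μg/mL carbenicillin, 50 μM IPTG and 0.2% rhamnose. Pooled colonies were amplicon-sequenced on an Illumina HiSeq 2500, and fitness is the DiMSum error-weighted combination of wild-type-normalised replicate fold changes, kanamycin versus none.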

| Sequence | self-splicing fitness (ln) (30 °C) | self-splicing fitness (ln) (37 °C) |
| --- | --- | --- |
| CCAUAGCAAUAUUACGUCGA | -3.03 ± 0.28 | -2.2 ± 0.27 |
| CCCAAGCAAUAUUACGAGAU | -2.91 ± 0.14 | -3.31 ± 0.21 |
| CCCAAGCAAUAUUACGAGUU | -3.89 ± 0.14 | -2.68 ± 0.14 |
| CCCAAGCAAUAUUACGCCAU | -3.28 ± 0.22 | -2.5 ± 0.23 |
| CCCAAGCAAUAUUACGCCCU | -3.14 ± 0.43 |  |
| CCCAAGCAAUAUUACGCGAA | -3.55 ± 0.15 | -2.63 ± 0.17 |
| CCCAAGCAAUAUUACGCGCA | -4.14 ± 0.35 | -2.72 ± 0.21 |
| CCCAAGCAAUAUUACGCGCU | -3.79 ± 0.34 | -1.91 ± 0.25 |
| CCCAAGCAAUAUUACGCUAG | -2.63 ± 0.19 | -2.72 ± 0.31 |
| CCCAAGCAAUAUUACGCUGC | -2.44 ± 0.2 | -2.43 ± 0.41 |
| CCCAAGCAAUAUUACGCUGG | -3.55 ± 0.19 | -2.52 ± 0.19 |
| CCCAAGCAAUAUUACGGCCC | -2.39 ± 0.47 |  |
| CCCAAGCAAUAUUACGGCCG | -2.73 ± 0.19 | -2.43 ± 0.21 |
| CCCAAGCAAUAUUACGGCUG | -4.22 ± 0.23 | -2.69 ± 0.16 |
| CCCAAGCAAUAUUACGGGUA | -4.37 ± 0.28 | -2.81 ± 0.16 |
| CCCAAGCAAUAUUACGGUAU | -4.33 ± 0.23 | -2.51 ± 0.21 |
| CCCAAGCAAUAUUACGUACC |  | -1.82 ± 0.28 |
| CCCAAGCAAUAUUACGUAGG | -2.17 ± 0.067 | -1.56 ± 0.082 |
| CCCAAGCAAUAUUACGUCGA | -3.92 ± 0.26 | -2.81 ± 0.2 |
| CCCAAGCAAUAUUACGUCGC | -3.94 ± 0.28 | -2.38 ± 0.16 |
| CCCAAGCAAUAUUACGUGAA | -3.33 ± 0.14 | -2.13 ± 0.14 |
| CCCAAGCAAUAUUACGUGAC | -3.91 ± 0.25 | -2.03 ± 0.19 |
| CCCAAGCAAUAUUACGUGUC | -4.25 ± 0.26 | -2.72 ± 0.18 |
| CCCAAGCAAUAUUACGUUCA | -3.21 ± 0.23 | -2.39 ± 0.29 |
| CCCAAGCAAUAUUACGUUGA | -3.74 ± 0.14 | -3.04 ± 0.14 |

| Sequence | self-splicing fitness (ln) (30 °C) | self-splicing fitness (ln) (37 °C) |
| --- | --- | --- |
| CCCAAGCAAUAUUACGUUUC | -3.63 ± 0.16 | -2.76 ± 0.15 |
| CCCCAGCAAUAUUACGAAAU | -3.82 ± 0.17 | -2.25 ± 0.18 |
| CCCCAGCAAUAUUACGAACG | -3.44 ± 0.2 | -2.19 ± 0.18 |
| CCCCAGCAAUAUUACGAUGG | -3.49 ± 0.15 | -2.82 ± 0.21 |
| CCCCAGCAAUAUUACGCACA | -3.56 ± 0.21 | -3.66 ± 0.29 |
| CCCCAGCAAUAUUACGCAUA | -2.67 ± 0.14 | -2.4 ± 0.2 |
| CCCCAGCAAUAUUACGCCAG | -3.57 ± 0.2 | -2.44 ± 0.22 |
| CCCCAGCAAUAUUACGCGGA | -3.34 ± 0.15 | -2.07 ± 0.12 |
| CCCCAGCAAUAUUACGCGUA | -3.87 ± 0.25 | -2.46 ± 0.18 |
| CCCCAGCAAUAUUACGCUCG | -3.14 ± 0.17 | -2.1 ± 0.19 |
| CCCCAGCAAUAUUACGGAAG | -2.27 ± 0.088 | -1.73 ± 0.11 |
| CCCCAGCAAUAUUACGGACA | -3.52 ± 0.14 | -2.53 ± 0.14 |
| CCCCAGCAAUAUUACGGAUC | -2.89 ± 0.12 | -2.96 ± 0.21 |
| CCCCAGCAAUAUUACGGCAG | -3.92 ± 0.16 | -2.22 ± 0.15 |
| CCCCAGCAAUAUUACGGCGA | -2.05 ± 0.14 | -1.64 ± 0.14 |
| CCCCAGCAAUAUUACGGCGG | -3.53 ± 0.17 | -2.99 ± 0.24 |
| CCCCAGCAAUAUUACGUACA | -3.37 ± 0.21 | -3.5 ± 0.35 |
| CCCCAGCAAUAUUACGUCAU | -3.36 ± 0.1 | -3.02 ± 0.15 |
| CCCCAGCAAUAUUACGUCCG |  | -2.09 ± 0.28 |
| CCCCAGCAAUAUUACGUGCC | -4.13 ± 0.27 | -2.57 ± 0.24 |
| CCCGAGCAAUAUUACGAACU |  | -1.58 ± 0.39 |
| CCCGAGCAAUAUUACGAAGC | -3.12 ± 0.26 |  |
| CCCGAGCAAUAUUACGAAUA | -3.44 ± 0.2 | -2.89 ± 0.21 |
| CCCGAGCAAUAUUACGACUA | -2.29 ± 0.36 |  |
| CCCGAGCAAUAUUACGAGCC | -2.46 ± 0.2 | -2.12 ± 0.28 |

| Sequence | self-splicing fitness (ln) (30 °C) | self-splicing fitness (ln) (37 °C) |
| --- | --- | --- |
| CCCGAGCAAUAUUACGCAAC |  | -2.23 ± 0.34 |
| CCCGAGCAAUAUUACGCAUC | -2 ± 0.15 | -1.45 ± 0.2 |
| CCCGAGCAAUAUUACGCUUA | -3.88 ± 0.3 | -2.82 ± 0.33 |
| CCCGAGCAAUAUUACGCUUC | -3.7 ± 0.47 | -2.32 ± 0.29 |
| CCCGAGCAAUAUUACGGAGG | -3.84 ± 0.21 | -2.57 ± 0.19 |
| CCCGAGCAAUAUUACGGCAC |  | -2.32 ± 0.28 |
| CCCGAGCAAUAUUACGGUCG | -3.56 ± 0.24 | -2.58 ± 0.2 |
| CCCGAGCAAUAUUACGGUUC | -3.62 ± 0.2 | -1.98 ± 0.2 |
| CCCGAGCAAUAUUACGUAUC | -1.94 ± 0.17 | -3.67 ± 0.36 |
| CCCGAGCAAUAUUACGUCUC |  | -2.22 ± 0.29 |
| CCCGAGCAAUAUUACGUGAG | -3.58 ± 0.19 | -2.77 ± 0.24 |
| CCCGAGCAAUAUUACGUGUC | -5.12 ± 0.38 | -2.8 ± 0.19 |
| CCCGAGCAAUAUUACGUUGG | -4.15 ± 0.18 | -2.09 ± 0.14 |
| CCCGAGCAAUAUUACGUUUA | -3.42 ± 0.17 | -2.75 ± 0.16 |
| CCCUAGCAAUAUUACGAACC |  | -2.28 ± 0.39 |
| CCCUAGCAAUAUUACGAAUA | -1.47 ± 0.3 | -1.79 ± 0.39 |
| CCCUAGCAAUAUUACGACCU | -3.5 ± 0.21 | -2.68 ± 0.26 |
| CCCUAGCAAUAUUACGAUCU | -3.92 ± 0.28 | -2.74 ± 0.24 |
| CCCUAGCAAUAUUACGAUGC | -3.12 ± 0.2 | -2.22 ± 0.31 |
| CCCUAGCAAUAUUACGCAUA | -3.33 ± 0.27 | -1.99 ± 0.2 |
| CCCUAGCAAUAUUACGCAUC | -3.26 ± 0.25 | -2 ± 0.2 |
| CCCUAGCAAUAUUACGCCAA | -3.03 ± 0.25 | -2.74 ± 0.41 |
| CCCUAGCAAUAUUACGCCAG | -3.87 ± 0.32 | -3.21 ± 0.37 |
| CCCUAGCAAUAUUACGCCUA |  | -2.48 ± 0.34 |
| CCCUAGCAAUAUUACGCCUC | -3.29 ± 0.27 | -3.81 ± 0.31 |

| Sequence | self-splicing fitness (ln) (30 °C) | self-splicing fitness (ln) (37 °C) |
| --- | --- | --- |
| CCCUAGCAAUAUUACGCCUU | -3.23 ± 0.16 | -3.08 ± 0.4 |
| CCCUAGCAAUAUUACGCGGC | -1.47 ± 0.21 | -2.36 ± 0.41 |
| CCCUAGCAAUAUUACGCGUG | -5.09 ± 0.41 | -1.06 ± 0.13 |
| CCCUAGCAAUAUUACGCUAG | -4.18 ± 0.34 | -2.47 ± 0.28 |
| CCCUAGCAAUAUUACGCUGU | -4.59 ± 0.31 | -2.63 ± 0.21 |
| CCCUAGCAAUAUUACGCUUG | -3.94 ± 0.42 | -2.18 ± 0.28 |
| CCCUAGCAAUAUUACGGAAA | -3.33 ± 0.27 | -1.5 ± 0.24 |
| CCCUAGCAAUAUUACGGACG | -2.32 ± 0.097 | -1.15 ± 0.11 |
| CCCUAGCAAUAUUACGGAUG | -3.17 ± 0.15 | -1.53 ± 0.11 |
| CCCUAGCAAUAUUACGGCUU | -3.76 ± 0.18 | -2.26 ± 0.18 |
| CCCUAGCAAUAUUACGGGAG | -3.67 ± 0.18 | -1.79 ± 0.14 |
| CCCUAGCAAUAUUACGGUCA | -2.57 ± 0.18 | -2.65 ± 0.28 |
| CCCUAGCAAUAUUACGGUGU | -3.05 ± 0.098 | -2.19 ± 0.11 |
| CCCUAGCAAUAUUACGUAAU | -3.5 ± 0.22 | -2.83 ± 0.25 |
| CCCUAGCAAUAUUACGUCGC | -3.12 ± 0.21 | -2.64 ± 0.25 |
| CCCUAGCAAUAUUACGUCUA | -2.5 ± 0.19 | -2.12 ± 0.2 |
| CCCUAGCAAUAUUACGUGAC | -2.85 ± 0.15 | -2.29 ± 0.34 |
| CCCUAGCAAUAUUACGUGCG | -2.36 ± 0.13 | -2.97 ± 0.17 |
| CCCUAGCAAUAUUACGUUGG | -3.97 ± 0.23 | -2.48 ± 0.2 |
| CCCUAGCAAUAUUACGUUUG | -3.93 ± 0.16 | -2.79 ± 0.18 |
| CCGAAGCAAUAUUACGACUG | -1.06 ± 0.12 | 0.835 ± 0.17 |
| CCGAAGCAAUAUUACGAGAG | -3.28 ± 0.22 | -1.53 ± 0.19 |
| CCGAAGCAAUAUUACGCAAA |  | -2.17 ± 0.38 |
| CCGAAGCAAUAUUACGCCCC | -1.26 ± 0.24 | -2.89 ± 0.47 |
